Measured values taken from paper PMC4183798.

Target: Fc-Nxph1mat-N146D/N156D/N162D (rat) (UniProt Q63366)
Assay: SPR; reversed experiment: purified Fc-Nxph1·LNS2-HA complex (formed by co-expression) bound covalently and randomly to a CMD 200m chip (EDC-NHS); running buffer 50 mM Tris pH 7.4; serial injections of elution solutions (pH 4, pH 8.9, 0.25–4 M NaCl, 5 mM EDTA, 6 M urea, 7 M guanidinium chloride); Reichert SR7000DC

Sequence of UniProt Q63366 (Q63366 22-271 N146D/N156D/N162D): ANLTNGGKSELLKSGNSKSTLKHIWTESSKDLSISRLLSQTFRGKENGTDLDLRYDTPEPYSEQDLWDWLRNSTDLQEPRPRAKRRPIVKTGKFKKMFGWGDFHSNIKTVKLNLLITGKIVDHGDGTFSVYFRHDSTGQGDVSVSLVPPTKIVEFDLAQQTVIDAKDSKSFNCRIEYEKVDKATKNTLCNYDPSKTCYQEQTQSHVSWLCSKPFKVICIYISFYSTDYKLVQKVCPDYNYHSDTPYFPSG

C-terminally hemagglutinin (HA)-tagged LNS2 (domain or fragment)
percent of the complex released after injection of 1 M NaCl: 9%
